“And” between values parts separate entries of the source, which are not always exact repeats. Identical values can stand only once.
Tests used:
[1] = biological target: T1, p50/RelA-FL: p50 subunit (39-350);RelA-RHD (no TAD) (murine;murine, UniProt P25799;Q04207 39-350;19-321, |); assay: fluorescence anisotropy; SEC buffer 25 mM Tris pH 7.5, 150 mM NaCl, 0.5 mM EDTA, 1 mM DTT (FA buffer not stated explicitly; 5 nM DNA, RT incubation, read at 25 C); EMSA: SEC buffer 1:1; conditions: protein: recombinant;recombinant, tags: N-terminal His6;none, copies: 1;1
T1 sequence (P25799 39-350, chain 1 of 2): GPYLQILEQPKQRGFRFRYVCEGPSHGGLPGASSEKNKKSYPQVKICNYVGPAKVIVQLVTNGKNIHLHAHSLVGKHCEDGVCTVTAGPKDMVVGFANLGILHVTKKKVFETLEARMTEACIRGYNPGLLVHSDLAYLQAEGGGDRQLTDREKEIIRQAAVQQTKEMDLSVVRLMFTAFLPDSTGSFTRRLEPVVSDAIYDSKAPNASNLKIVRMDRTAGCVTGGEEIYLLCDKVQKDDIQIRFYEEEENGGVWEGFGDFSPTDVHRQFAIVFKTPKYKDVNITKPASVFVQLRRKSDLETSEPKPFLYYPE
T1 sequence (Q04207 19-321, chain 2 of 2): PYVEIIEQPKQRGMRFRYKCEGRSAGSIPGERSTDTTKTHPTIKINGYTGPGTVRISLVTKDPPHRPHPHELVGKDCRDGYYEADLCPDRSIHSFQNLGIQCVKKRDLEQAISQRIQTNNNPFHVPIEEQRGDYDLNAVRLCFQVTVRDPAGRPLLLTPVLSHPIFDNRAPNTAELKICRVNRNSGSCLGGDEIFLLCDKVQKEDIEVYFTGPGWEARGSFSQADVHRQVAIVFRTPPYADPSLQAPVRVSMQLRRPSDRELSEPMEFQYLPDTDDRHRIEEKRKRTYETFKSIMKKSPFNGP

[2] = biological target: T2, p50/RelA-FL: p50 subunit (39-350);RelA-FL (RHD + TAD) (murine;murine, UniProt P25799;Q04207 39-350;19-549, |); assay: as above; conditions: protein: recombinant;recombinant, tags: N-terminal His6;none, copies: 1;1
T2 sequence (P25799 39-350, chain 1 of 2): as the sequence (P25799 39-350, chain 1 of 2) above
T2 sequence (Q04207 19-549, chain 2 of 2): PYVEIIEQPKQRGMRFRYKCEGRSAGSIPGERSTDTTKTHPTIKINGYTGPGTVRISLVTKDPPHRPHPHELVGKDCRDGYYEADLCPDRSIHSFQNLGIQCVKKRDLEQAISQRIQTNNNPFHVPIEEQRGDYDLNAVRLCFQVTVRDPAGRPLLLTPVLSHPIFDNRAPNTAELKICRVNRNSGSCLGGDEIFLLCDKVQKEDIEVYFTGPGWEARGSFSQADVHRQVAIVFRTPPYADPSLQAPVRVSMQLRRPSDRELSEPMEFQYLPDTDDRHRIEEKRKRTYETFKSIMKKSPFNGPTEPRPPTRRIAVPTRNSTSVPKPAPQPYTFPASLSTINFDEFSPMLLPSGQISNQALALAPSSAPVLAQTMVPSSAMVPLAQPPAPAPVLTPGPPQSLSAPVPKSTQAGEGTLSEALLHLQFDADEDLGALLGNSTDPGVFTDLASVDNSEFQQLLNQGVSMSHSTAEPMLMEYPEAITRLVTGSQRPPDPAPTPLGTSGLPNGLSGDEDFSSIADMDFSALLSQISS

[3] = biological target: T1, p50/RelA-FL: p50 subunit …; assay: EMSA; SEC buffer 25 mM Tris pH 7.5, 150 mM NaCl, 0.5 mM EDTA, 1 mM DTT (FA buffer not stated explicitly; 5 nM DNA, RT incubation, read at 25 C); EMSA: SEC buffer 1:1; conditions: protein: recombinant;recombinant; tags: N-terminal His6;none; copies: 1;1
[4] = biological target: T2, p50/RelA-FL: p50 subunit …; assay: as above; conditions: protein: recombinant;recombinant; tags: N-terminal His6;none; copies: 1;1
[5] = label: 5' fluorescein (FITC), hairpin
[6] = label: 5' fluorescein on forward or reverse strand

Binder | Kd [1, 5] [nM] | Kd [2, 5] [nM] | binding result [3] | binding result [4] | Kd [1, 6] | Kd [2, 6]
GTAGACGTGCTCCCCCAGCACGTCTAC (structured_DNA, 5' 5AmMC6 amino linker) [Random hairpin] | 1500 ± 100 | 130 ± 40 | – | – | – | –
GGGAAAGTACTCCCCCAGTACTTTCCC (structured_DNA, 5' 5AmMC6 amino linker) [Urokinase (UK) hairpin] | 6.3 ± 1.5 | 2.2 ± 0.6 | – | – | – | –
NFKBIA tandem 59 bp (dsDNA) DNA 1: CTGACTGGCTTGGAAATTCCCCGAGCCTGACCCCGCCCCAGAGAAATCCCCAGCCAGCG DNA 2: CGCTGGCTGGGGATTTCTCTGGGGCGGGGTCAGGCTCGGGGAATTTCCAAGCCAGTCAG | – | – | binds | binds | – | –
NFKBIA tandem dsDNA (FA) (dsDNA) DNA 1: CTTGGAAATTCCCCGAGCCTGACCCCGCCCCAGAGAAATCCCCAG DNA 2: CTGGGGATTTCTCTGGGGCGGGGTCAGGCTCGGGGAATTTCCAAG | – | – | – | – | 1.7 nM and 10 nM | 1.5 nM and 5.1 nM
HIV LTR tandem dsDNA (FA) (dsDNA) DNA 1: CAAGGGACTTTCCGCTGGGGACTTTCCAGG DNA 2: CCTGGAAAGTCCCCAGCGGAAAGTCCCTTG | – | – | – | – | 1.7 ± 0.4 nM | 1.3 ± 0.4 nM
HIV LTR tandem 33 bp (dsDNA) DNA 1: AAGGGACTTTCCGCTGGGGACTTTCCAGGGAGG DNA 2: CCTCCCTGGAAAGTCCCCAGCGGAAAGTCCCTT | – | – | binds | binds | – | –

Source: paper PMC9440430, “An intrinsically disordered transcription activation domain increases the DNA binding affinity and reduces the specificity of NFκB p50/RelA”
